The values below come from patent US20070160576A1, “IL-17A/F heterologous polypeptides and therapeutic uses thereof” (Genentech, Inc., priority 2001, published 2007).

Experiment [1] addresses T1, human IL-17 receptor (IL-17R, PRO1) as tested in the receptor/ligand screen (human, UniProt Q96F46 33-320, limits assumed).
T1 construct: also called IL-7R (as misprinted)
Put plainly: receptor/ligand screen, FIG. 14. From the text:
(§1) A PRO polypeptide of the present invention suspected of being a ligand for a receptor is expressed as a fusion protein containing the Fc domain of human IgG (an immunoadhesin). Receptor-ligand binding is detected by allowing interaction of the immunoadhesin polypeptide with cells (e.g. Cos cells) expressing candidate PRO polypeptide receptors and visualization of bound immunoadhesin with fluorescent reagents directed toward the Fc fusion domain and examination by microscope. Cells expressing candidate receptors are produced by transient transfection, in parallel, of defined subsets of a library of cDNA expression vectors encoding PRO polypeptides that may function as receptor molecules. Cells are then incubated for 1 hour in the presence of the PRO polypeptide immunoadhesin being tested for possible receptor binding. The cells are then washed and fixed with paraformaldehyde. The cells are then incubated with fluorescent conjugated antibody directed against the Fc portion of the PRO polypeptide immunoadhesin (e.g. FITC conjugated goat anti-human-Fc antibody). The cells are then washed again and examined by microscope. A positive interaction is judged by the presence of fluorescent labeling of cells transfected with cDNA encoding a particular PRO polypeptide receptor or pool of receptors and an absence of similar fluorescent labeling of similarly prepared cells that have been transfected with other cDNA or pools of cDNA. If a defined pool of cDNA expression vectors is judged to be positive for interaction with a PRO polypeptide immunoadhesin, the individual cDNA species that comprise the pool are tested individually (the pool is “broken down”) to determine the specific cDNA that encodes a receptor able to interact with the PRO polypeptide immunoadhesin.
(§2) In another embodiment of this assay, an epitope-tagged potential ligand PRO polypeptide (e.g., 8 histidine “His” tag) is allowed to interact with a panel of potential receptor PRO polypeptide molecules that have been expressed as fusions with the Fc domain of human IgG (immunoadhesins). Following a 1 hour co-incubation with the epitope tagged PRO polypeptide, the candidate receptors are each immunoprecipitated with protein A beads and the beads are washed. Potential ligand interaction is determined by Western blot analysis of the immunoprecipitated complexes with antibody directed towards the epitope tag.

The target in experiment [2] is T2, PRO5801 (human IL-17RH1 receptor) as tested in the receptor/ligand screen (human, UniProt Q9NRM6 18-292, limits assumed).
T2 sequence (looked up): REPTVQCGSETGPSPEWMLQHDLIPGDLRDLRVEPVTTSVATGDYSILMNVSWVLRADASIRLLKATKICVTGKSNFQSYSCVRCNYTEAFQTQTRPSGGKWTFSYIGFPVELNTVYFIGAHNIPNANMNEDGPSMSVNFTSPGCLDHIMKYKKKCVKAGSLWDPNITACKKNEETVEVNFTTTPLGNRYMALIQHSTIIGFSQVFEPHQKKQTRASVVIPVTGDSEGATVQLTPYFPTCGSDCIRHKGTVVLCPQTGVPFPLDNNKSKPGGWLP
Put plainly: receptor/ligand screen, FIG. 14.
From the text: as §1, §2

Experiment [3] deals with T3, PRO5801 (human IL-17RH1 receptor) (Homo sapiens, UniProt Q9NRM6).
T3 sequence (Q9NRM6 18-502): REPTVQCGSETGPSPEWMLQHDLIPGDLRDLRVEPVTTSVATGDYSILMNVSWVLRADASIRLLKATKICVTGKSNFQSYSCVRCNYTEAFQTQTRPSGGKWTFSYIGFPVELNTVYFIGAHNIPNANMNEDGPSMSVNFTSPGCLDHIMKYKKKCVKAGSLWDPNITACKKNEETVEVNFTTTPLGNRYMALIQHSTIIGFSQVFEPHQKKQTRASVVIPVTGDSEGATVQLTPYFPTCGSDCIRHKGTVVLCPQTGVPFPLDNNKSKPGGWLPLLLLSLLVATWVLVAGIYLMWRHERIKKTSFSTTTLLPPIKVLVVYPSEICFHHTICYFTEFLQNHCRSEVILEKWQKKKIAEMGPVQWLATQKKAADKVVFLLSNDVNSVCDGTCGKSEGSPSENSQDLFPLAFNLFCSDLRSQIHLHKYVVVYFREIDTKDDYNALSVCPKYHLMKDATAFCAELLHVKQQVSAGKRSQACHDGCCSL
Briefly: Receptor/ligand interaction screening assay (immunoadhesin). It is filed as binding.

B1: PRO21175 (IL-17D ligand) (ligand, UniProt Q8TAD2 16-202, looked up)
chain: AGAPRAGRRPARPRGCADRPEELLEQLYGRLAAGVLSAFHHTLQLGPREQARNASCPAGGRPADRRFRPPTNLRSVSPWAYRISYDPARYPRYLPEAYCLCRGCLTGLFGEEDVRFRSAPVYMPTVVLRRTPACAGGRSVYTEAYVTIPVGCTCVPEPEKDADSINSSIDKQGAKLLLGPNDAPAGP
With B1, the binding result in experiment [1] and in experiment [2] was “no binding” throughout. In experiment [3], the “binding to IL-17RH1 receptor (PRO5801)” value is “do not interact”.

B2: PRO1122 (IL-17C ligand) (ligand, UniProt Q9P0M4 19-197, looked up)
chain: HHDPSLRGHPHSHGTPHCYSAEELPLGQAPPHLLARGAKWGQALPVALVSSLEAASHRGRHERPSATTQCPVLRPEEVLEADTHQRSISPWRYRVDTDEDRYPQKLAFAECLCRGCIDARTGRETAALNSVRLLQSLLVLRRRPCSRDGSGLPTPGAFAFHTEFIHVPVGCTCVLPRSV
On to B2, for which the binding result in experiment [2] was “no binding”. Further, in experiment [3], the “binding to IL-17RH1 receptor (PRO5801)” value is “do not interact”.
